Test results taken from PMC5224519, “Developing the IVIG biomimetic, Hexa-Fc, for drug and vaccine applications” (Scientific Reports, 2015).

Experiments:
[1] = target: soluble recombinant human DC-SIGN tetramers (human) (UniProt Q9NNX6); test: ELISA; binding to human DC-SIGN of Igs untreated or treated with PNGase F, Endo S or Endo H (Figure S8); format not told in the text shown
hIgG1-Fc-CL309/310CH-TP = test: non-reducing SDS-PAGE (blot and Coomassie); 5 μg purified Fc on 4-12% bis-Tris gradient gels, non-reducing or reducing; blot with goat anti-human IgG or Coomassie blue
[2] = target: soluble recombinant human DC-SIGN tetramers (human) (UniProt Q9NNX6); test: SPR; multichannel SPR (ProteOn XPR36); DC-SIGN or SIGNR1 amine-coupled on GLM chips; Ig preparations or gp120 as analytes, 25°C, 25 μl per minute; 1:1 Langmuir model
[3] = target: recombinant SIGNR1 (mouse) (UniProt Q8CJ91); test: as above
[4] = target: T1, soluble recombinant human DC-SIGN tetramers (human, UniProt Q9NNX6 1-404); test: as above; conditions: both partners purified
T1 construct: human DC-SIGN, soluble recombinant; also called dendritic cell-specific intercellular adhesion molecule-3-grabbing non-integrin
T1 sequence (looked up): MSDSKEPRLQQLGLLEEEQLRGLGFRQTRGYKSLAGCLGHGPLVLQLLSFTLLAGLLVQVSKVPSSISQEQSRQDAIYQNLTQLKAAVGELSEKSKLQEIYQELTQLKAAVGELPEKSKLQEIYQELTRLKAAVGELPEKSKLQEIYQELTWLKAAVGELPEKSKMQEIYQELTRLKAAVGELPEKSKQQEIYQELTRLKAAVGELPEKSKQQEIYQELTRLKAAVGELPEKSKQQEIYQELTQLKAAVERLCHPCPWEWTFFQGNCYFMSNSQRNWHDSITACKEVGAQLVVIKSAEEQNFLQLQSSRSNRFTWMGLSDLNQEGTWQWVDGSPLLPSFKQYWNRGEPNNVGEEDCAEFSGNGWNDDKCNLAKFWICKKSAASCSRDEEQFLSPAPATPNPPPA

recombinant SIGNR1 = target: T2, recombinant SIGNR1 (mouse, UniProt Q8CJ91 1-325); test: as above; conditions: both partners purified
T2 construct: mouse SIGNR1, soluble recombinant; also called the mouse orthologue of the human DC-SIGN; source: bought: R&D systems
T2 sequence (looked up): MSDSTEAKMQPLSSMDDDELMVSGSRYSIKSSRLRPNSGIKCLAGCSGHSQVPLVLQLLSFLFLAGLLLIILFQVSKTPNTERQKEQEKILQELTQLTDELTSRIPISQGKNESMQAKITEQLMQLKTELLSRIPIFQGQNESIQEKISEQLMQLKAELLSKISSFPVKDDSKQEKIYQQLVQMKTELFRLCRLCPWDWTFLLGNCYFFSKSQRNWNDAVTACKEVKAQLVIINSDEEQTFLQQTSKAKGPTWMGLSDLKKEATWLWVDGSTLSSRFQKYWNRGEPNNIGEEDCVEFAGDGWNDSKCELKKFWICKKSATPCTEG

Molecule: PNGase F treated human IgM (antibody)
- residual binding [1]: 50%

Molecule: hIgG1-Fc-CL309/310CH-TP
- stoichiometry N (hIgG1-Fc-CL309/310CH-TP): 6

Molecule: hexameric-Fc (hexa-Fc), hIgG1-Fc-TP-LH309/310CL
- Kd [2]: 1260 nM
- koff [2]: 0.000839 s⁻¹
- kon [2]: 668 M⁻¹ s⁻¹

Molecule: recombinant HIV gp120 (natural protein)
- Kd [3]: 3.91 nM
- koff [3]: 9.46e-05 s⁻¹
- kon [3]: 27700 M⁻¹ s⁻¹
- Kd [2]: 4.39 nM
- koff [2]: 0.000158 s⁻¹
- kon [2]: 36000 M⁻¹ s⁻¹

B1: CHO cell derived recombinant (hexameric) IgM-Fc (domain or fragment)
chain: IAELPPKVSVFVPPRDGFFGNPRKSKLICQATGFSPRQIQVSWLREGKQVGSGVTTDQVQAEAKESGPTTYKVTSTLTIKESDWLGQSMFTCRVDHRGLTFQQNASSMCVPDQDTAIRVFAIPPSFASIFLTKSTKLTCLVTDLTTYDSVTISWTRQNGEAVKTHTNISESHPNATFSAVGEASICEDDWNSGERFTCTVTHTDLPSPLKQTISRPKGVALHRPDVYLLPPAREQLNLRESATITCLVTGFSPADVFVQWMQRGQPLSPEKYVTSAPMPEPQAPGRYFAHSILTVSEEEWNTGETYTCVVAHEALPNRVTERTVDKSTGKPTLYNVSLVMSDTAGTCY
modifications: CHO-cell N-glycans; disulfide-linked hexamer. Limits taken as Cmu2-Cmu4 plus tailpiece; needs the secreted isoform (453 aa), not the 474-aa membrane form displayed as P01871
- Kd [4]: 260 nM
- Kd (recombinant SIGNR1): 2200 nM
